# B1: N-terminal head domain of human CCDC61 (hCCDC61^1-143) [human] / itself (parent)
# chain: GSMDQPAGLQVDYVFRGVEHAVRVMVSGQVLELEVEDRMTADQWRGEFDAGFIEDLTHKTGNFKQFNIFCHMLESALTQSSESVTLDLLTYTDLESLRNRKMGGRPGSLAPRSAQLNSKRYLILIYSVEFDRIHYPLPLPYQGKP
# Variants of: B1
# Experiment: analytical ultracentrifugation (AUC)
# Conditions: with itself
row,screen value,Variant
1,16 kDa,chain 1 F130E D131A

# — paper PMC7267773, “CCDC61/VFL3 Is a Paralog of SAS6 and Promotes Ciliary Functions” (Structure(London, England:1993), 2020)
